Experimental data reported in patent US20100143379A1 (priority 2005, published 2010).

Key:
Assay type in all cases: cell-based
[1] = tested on: human K562 progenitor cell line; assay: K562 terminal erythropoietic differentiation (DAF stain) and hemoglobin content
Experimental: The neutralizing anti-MIF mAb was added at 100 μg/ml. DAF positive cells were enumerated and expressed as fold-change over total, input cells. FIG. 2B: cellular hemoglobin content of cultured K562 progenitor cells. […] Each value represents the mean±SD of at least three different experiments. *P<0.01 versus corresponding controls.
The human K562 progenitor cell line (ATCC, CCL-243) was cultured in RPMI/10% FBS supplemented with penicillin and streptomycin. For differentiation, sodium butyrate (AldRick, Milwaukee, Wis.) was added in the medium (Witt et al. 2000. Blood 95:2391-2396). Terminal erythropoietic differentiation was measured as described by McGukin et al. (McGuckin et al. 2003. European Journal of Haematology 70:106-114) and positive cells enumerated after staining with 2,7-diaminofluorene (Sigma, St. Louis, Mo.). To quantify hemoglobin synthesis, the cells were centrifuged and washed in PBS, and the cell pellet resuspended in lysis buffer (100 mM potassium phosphate pH 7.8, 0.2% Triton X-100) before disruption by aspiration through a 21-gauge needle. After microcentrifugation, the supernatant was collected and the hemoglobin concentration was determined using the hemoglobin kit from Sigma. Cell viability was assessed by trypan blue dye exclusion and found to be equivalent (85-90% viability) between all samples studied.

PKA = assay: Western analysis of kinase phosphorylation in COS-7/CD74+CD44 cells; settings: 100 ng/ml for 10 minutes
Experimental: FIGS. 12A-12E show the phosphoserine content of CD74 and CD44 measured by ELISA. […] The ELISA values represent the mean±SD of triplicate measurements. Experiments were replicated twice. *P<0.02 versus corresponding control (Student's T test, two-tailed). […] Cell lysates were prepared and probed for PKA and PKC using phospho-specific, and total anti-PKA and anti-PKC antibodies.
Cell lysates were collected and analyzed by immunoblots using a pair of anti-phospho-PICA and anti-(total)-PKA antibodies, a pair of anti-phospho-PKC (all from Cell Signaling) and anti-(total)-PKC (Santa Cruz) antibodies, or a pair of anti-phospho-p56^lck (Cell Signaling) and anti-(total) p56^lck (sc-433, Santa Cruz) antibodies.

HIV-1ADA = assay: HIV-1 replication in monocyte-derived macrophage cultures (RT activity); settings: recombinant MIF 50 ng/ml
Experimental: (§1) Triplicate cultures of monocyte-derived macrophages were infected with HIV-1ADA in the presence of anti-MIF MAb (25 μg/ml) or isotype control. Virus replication was monitored by RT activity in culture supernatants. Results are presented as mean±SD. […] Control cultures were cultivated with PMB mixed with an isotype immunoglobulin with or without MIF.
as §1, with “To investigate this possibility, HIV-infected macrophages were cultured in the presence of a neutralizing anti-MIF antibody or isotype control. Triplicate” for “Triplicate”, “supernatants.” for “supernatants. Results are presented as mean±SD.”

B1: MIF: macrophage migration inhibitory factor; recombinant mouse or human MIF purified essentially free of endotoxin (protein)
chain: PMFIVNTNVPRASVPDGFLSELTQQLAQATGKPPQYIAVHVVPDQLMAFGGSSEPCALCSLHSIGKIGGAQNRSYSKLLCGLLAERLRISPDRVYINYYDMNAANVGWNNSTFA
terminal erythropoietic differentiation (DAF stain) ([1]; MIF 200 ng/ml for 96 hrs): inhibited the terminal erythropoietic differentiation
hemoglobin production ([1]; cellular hemoglobin content of cultured K562 progenitor cells): inhibition of cytodifferentiation and hemoglobin production
phosphorylation of PKA (PKA): MIF-dependent phosphorylation of PKA
HIV-1 replication (RT activity) (HIV-1ADA): significantly suppressed replication
